{
  "source": "patent US20230123431",
  "proteins": {"B1": {"name": "lipoamidase from Enterococcus faecalis (EfLPA) (protein)", "chain": "MLSLRQSIRFFKPATRTLCSSRYLLQQKPMLAQESILETTVQTETESVTTETSQTVANLESETTSQTVMQEKESSSAIAESSSRNVVAVTTETTNEIQNSGTDGKAVSAESVFSEADYKQATALELATLVREKKVTSEELVKIALAITKRENPTLNAVITLREEAALTEAKALQDTGQPFLGVPLLLKGLGQSLKGESNTNGFGFLRDQVAGGTSTFVKALQNAGFIIIGQTNYPELGWKNISDSKLYGVSVNPWNPNHYSGGSSGGAGASVAAAFVPIASGSDAGGSIRIPASWTGTVGLKPSRGVIIGNSNSAKGQTVHFGLSRTVADTNALFETLLTKKDLPAGHLSQAQPIAYTTESPAGTPVSAEAKEAVAEAVAFLKDQGYTLVEVKHPVDGERLMKNYYTVAAGSAGIADFMARQKLKRPLERNDVELLTWALFQTGKNITSEETTAAWTDIALQAQAMDEFYQQYPILLTPTTAATAPSIDNPLLKPEHAAQMEKIDQLSPAEQKQLIYDQWLTAFTYTPFTQQANLFGHPALSVPTYVSKEGLPLGIQFNSALNEDRTLLQLGALFENNHKINQPHVEEPDKDKEPDASGEPEKDKDPNASGEPDKDKEPDASGEPDKDKEPDASGEPDKDKEPDASGKPDKDKETKTSEGPIEGKDQNQNPDKAGKTTSGSSLDNSLNSSANQGTKSTESTHAFSNKSMIGKQEQLPKKVLPKAGAEVPSTFWIVLGGAFLVTSGTIYIRKTRKHHHHHHHHHHHH"}},
  "key": {"[1]": {"biological_target": "T1, Kgd2p (lipoate-bound subunit of alpha-ketoglutarate dehydrogenase, KGDC), P19262", "T1 chain": "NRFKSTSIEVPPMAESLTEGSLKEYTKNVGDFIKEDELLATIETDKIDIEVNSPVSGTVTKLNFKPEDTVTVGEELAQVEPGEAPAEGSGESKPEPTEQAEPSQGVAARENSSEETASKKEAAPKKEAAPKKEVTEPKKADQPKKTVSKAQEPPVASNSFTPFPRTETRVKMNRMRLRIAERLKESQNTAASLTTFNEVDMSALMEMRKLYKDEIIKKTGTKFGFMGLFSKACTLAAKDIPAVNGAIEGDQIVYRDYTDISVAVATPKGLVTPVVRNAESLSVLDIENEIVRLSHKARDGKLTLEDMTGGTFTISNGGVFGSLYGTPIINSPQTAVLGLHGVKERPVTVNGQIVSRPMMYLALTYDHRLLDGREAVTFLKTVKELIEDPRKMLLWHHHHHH"}, "[2]": {"biological_target": "T2, Lat1p (lipoate-bound subunit of pyruvate dehydrogenase, PDH), P12695", "T2 chain": "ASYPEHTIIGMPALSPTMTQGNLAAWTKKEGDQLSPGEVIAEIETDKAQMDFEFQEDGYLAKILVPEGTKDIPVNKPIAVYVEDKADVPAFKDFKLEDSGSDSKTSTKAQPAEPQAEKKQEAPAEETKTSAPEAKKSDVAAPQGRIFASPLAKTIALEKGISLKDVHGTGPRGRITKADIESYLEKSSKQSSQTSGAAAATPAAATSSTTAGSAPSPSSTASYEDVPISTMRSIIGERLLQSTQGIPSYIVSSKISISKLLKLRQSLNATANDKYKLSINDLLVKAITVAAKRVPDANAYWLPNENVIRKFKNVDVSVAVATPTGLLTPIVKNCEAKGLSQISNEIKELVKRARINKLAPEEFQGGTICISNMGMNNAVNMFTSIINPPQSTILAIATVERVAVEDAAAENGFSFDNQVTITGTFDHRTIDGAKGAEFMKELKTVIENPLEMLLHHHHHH"}, "[3]": {"biological_target": "T3, Gcv3p (H protein of the glycine cleavage system), lipoylated", "T3 chain": "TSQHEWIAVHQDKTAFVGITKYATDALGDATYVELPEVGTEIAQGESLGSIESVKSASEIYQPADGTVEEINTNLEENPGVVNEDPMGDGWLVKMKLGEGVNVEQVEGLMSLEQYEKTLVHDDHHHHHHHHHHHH"}},
  "data": [
    {"protein": "B1", "values": [
      {"measurement": "lipoic acid released (LC-MS/MS) after incubation of the purified proteins at 37 C for 2 h", "setting": "[1]", "result": "no lipoic acid was observed in the reaction mixtures containing EfLPA with Kgd2p or Lat1p individually"},
      {"measurement": "lipoic acid released (LC-MS/MS) after incubation of the purified proteins at 37 C for 2 h", "setting": "[2]", "result": "no lipoic acid was observed in the reaction mixtures containing EfLPA with Kgd2p or Lat1p individually"},
      {"measurement": "lipoic acid released (LC-MS/MS, confirmed by GC-MS) after incubation of the purified proteins at 37 C for 2 h", "setting": "[3]", "result": "Only the reaction of EfLPA with Gcv3p resulted in a peak with m/z 205.0360 (FIG. 5B) indicative of lipoic acid"}
    ]}
  ]
}
